Assay results reported in patent US20160060317A1.

Target: receptors for neurturin on the cell surface of human neuroblastoma cell line TGW (JCRB0618)
Experiment: cell-based or functional assay

Binder	biological activity in vitro (tyrosine hydroxylase reporter gene, luciferase, TGW cells), EC50	reporter gene activity (luciferase, SRE reporter in TGW cells), EC50
human recombinant neurturin (unmodified protein), Q99748 96-197 (ligand) ARLGARPCGLRELEVRVSELGLGYASDETVLFRYCAGACEAAARVYDLGLRRLRQRRRLRRERVRAQPCCRPTAYEDEVSFLDAHSRYHTVHELSARECACV	2.2 ng/ml	
mono-CES0310-neurturin, Q99748 96-197; Q99748 96-197 (ligand, here or on the partner: six-arm branched PEG of about 5 kDa on the N-terminal amino acid) chain 1: ARLGARPCGLRELEVRVSELGLGYASDETVLFRYCAGACEAAARVYDLGLRRLRQRRRLRRERVRAQPCCRPTAYEDEVSFLDAHSRYHTVHELSARECACV chain 2: ARLGARPCGLRELEVRVSELGLGYASDETVLFRYCAGACEAAARVYDLGLRRLRQRRRLRRERVRAQPCCRPTAYEDEVSFLDAHSRYHTVHELSARECACV		12 ng/mL
mono-mPEG-NHS-neurturin, Q99748 96-197; Q99748 96-197 (ligand, here or on the partner: about 5 kDa linear PEG (mPEG-succinimidyl succinat reagent, NHS-method) on the N-terminal amino acid) chain 1: ARLGARPCGLRELEVRVSELGLGYASDETVLFRYCAGACEAAARVYDLGLRRLRQRRRLRRERVRAQPCCRPTAYEDEVSFLDAHSRYHTVHELSARECACV chain 2: ARLGARPCGLRELEVRVSELGLGYASDETVLFRYCAGACEAAARVYDLGLRRLRQRRRLRRERVRAQPCCRPTAYEDEVSFLDAHSRYHTVHELSARECACV		9.7 ng/mL
mono-mPEG-CHO-neurturin, Q99748 96-197; Q99748 96-197 (ligand, here or on the partner: linear 5 kDa polyethylene glycol butyraldehyde-derived PEG on the N-terminal amino acid) chain 1: ARLGARPCGLRELEVRVSELGLGYASDETVLFRYCAGACEAAARVYDLGLRRLRQRRRLRRERVRAQPCCRPTAYEDEVSFLDAHSRYHTVHELSARECACV chain 2: ARLGARPCGLRELEVRVSELGLGYASDETVLFRYCAGACEAAARVYDLGLRRLRQRRRLRRERVRAQPCCRPTAYEDEVSFLDAHSRYHTVHELSARECACV		7.4 ng/mL
